Test results taken from the Human Domainome abundance scans (Beltran et al. 2025).
± gives the uncertainty stated by the source.

B1: Transcription factor SOX-4, residues 60 to 127; numbered along this chain, Q06945 (parent)
chain: KRPMNAFMVWSQIERRKIMEQSPDMHNAEISKRLGKRWKLLKDSDKIPFIREAERLRLKHMADYPDYK
B2: POU domain, class 3, transcription factor 3, residues 408 to 463; numbered along this chain, P20264 (parent)
chain: KKRTSIEVSVKGALESHFLKCPKPSAQEITNLADSLQLEKEVVRVWFCNRRQKEKR

Variants of: B1
Assay: abundance fitness (aPCA) (normalised: wild type 0, dead -1); higher = more abundant; growth selection in yeast, the domain comes from the species named
Details: Homo sapiens

Variant	abundance fitness
K68S	-0.17 ± 0.096
K68C	-0.242 ± 0.17
K68M	-0.23 ± 0.31
K68L	-0.297 ± 0.42
K68E	-0.155 ± 0.11
K68Y	-0.125 ± 0.2
K68V	-0.43 ± 0.34
K68R	-0.068 ± 0.079
K68T	-0.436 ± 0.45
K68P	0.128 ± 0.35
Y67W	-0.296 ± 0.11
Y67S	0.088 ± 0.078
Y67P	-0.057 ± 0.088
Y67Q	0.051 ± 0.15
Y67N	0.034 ± 0.15
Y67R	0.048 ± 0.11
Y67M	-0.069 ± 0.093
Y67T	-0.14 ± 0.08
Y67V	0.159 ± 0.085

Variants of: B2
Assay: as above
Details: Homo sapiens

Variant	abundance fitness
KKKTSIEVSVKGALESHFLKCPKPSAQEITNLADSLQLEKEVVRVWFCNRRQKEKR	0.067 ± 0.13
KKHTSIEVSVKGALESHFLKCPKPSAQEITNLADSLQLEKEVVRVWFCNRRQKEKR	-0.273 ± 0.15
KKATSIEVSVKGALESHFLKCPKPSAQEITNLADSLQLEKEVVRVWFCNRRQKEKR	-0.15 ± 0.075
KKGTSIEVSVKGALESHFLKCPKPSAQEITNLADSLQLEKEVVRVWFCNRRQKEKR	0.04 ± 0.064
KKPTSIEVSVKGALESHFLKCPKPSAQEITNLADSLQLEKEVVRVWFCNRRQKEKR	-0.2 ± 0.13
KKCTSIEVSVKGALESHFLKCPKPSAQEITNLADSLQLEKEVVRVWFCNRRQKEKR	-0.415 ± 0.15
KKQTSIEVSVKGALESHFLKCPKPSAQEITNLADSLQLEKEVVRVWFCNRRQKEKR	-0.217 ± 0.13
KKSTSIEVSVKGALESHFLKCPKPSAQEITNLADSLQLEKEVVRVWFCNRRQKEKR	0.026 ± 0.081
KKFTSIEVSVKGALESHFLKCPKPSAQEITNLADSLQLEKEVVRVWFCNRRQKEKR	-0.119 ± 0.15
KKYTSIEVSVKGALESHFLKCPKPSAQEITNLADSLQLEKEVVRVWFCNRRQKEKR	-0.267 ± 0.19
KKMTSIEVSVKGALESHFLKCPKPSAQEITNLADSLQLEKEVVRVWFCNRRQKEKR	0.045 ± 0.11
KKWTSIEVSVKGALESHFLKCPKPSAQEITNLADSLQLEKEVVRVWFCNRRQKEKR	-0.155 ± 0.088
KKLTSIEVSVKGALESHFLKCPKPSAQEITNLADSLQLEKEVVRVWFCNRRQKEKR	0.055 ± 0.087
KKVTSIEVSVKGALESHFLKCPKPSAQEITNLADSLQLEKEVVRVWFCNRRQKEKR	0.031 ± 0.079
KKTTSIEVSVKGALESHFLKCPKPSAQEITNLADSLQLEKEVVRVWFCNRRQKEKR	-0.077 ± 0.094
KKITSIEVSVKGALESHFLKCPKPSAQEITNLADSLQLEKEVVRVWFCNRRQKEKR	-0.023 ± 0.17
KKNTSIEVSVKGALESHFLKCPKPSAQEITNLADSLQLEKEVVRVWFCNRRQKEKR	-0.048 ± 0.2
KTRTSIEVSVKGALESHFLKCPKPSAQEITNLADSLQLEKEVVRVWFCNRRQKEKR	-0.008 ± 0.11
KNRTSIEVSVKGALESHFLKCPKPSAQEITNLADSLQLEKEVVRVWFCNRRQKEKR	-0.094 ± 0.14
KSRTSIEVSVKGALESHFLKCPKPSAQEITNLADSLQLEKEVVRVWFCNRRQKEKR	-0.077 ± 0.098
KVRTSIEVSVKGALESHFLKCPKPSAQEITNLADSLQLEKEVVRVWFCNRRQKEKR	-0.048 ± 0.1
KFRTSIEVSVKGALESHFLKCPKPSAQEITNLADSLQLEKEVVRVWFCNRRQKEKR	0.056 ± 0.16
KERTSIEVSVKGALESHFLKCPKPSAQEITNLADSLQLEKEVVRVWFCNRRQKEKR	-0.054 ± 0.13

Variant	abundance fitness
KCRTSIEVSVKGALESHFLKCPKPSAQEITNLADSLQLEKEVVRVWFCNRRQKEKR	-0.332 ± 0.2
KGRTSIEVSVKGALESHFLKCPKPSAQEITNLADSLQLEKEVVRVWFCNRRQKEKR	-0.025 ± 0.089
KDRTSIEVSVKGALESHFLKCPKPSAQEITNLADSLQLEKEVVRVWFCNRRQKEKR	-0.098 ± 0.14
KWRTSIEVSVKGALESHFLKCPKPSAQEITNLADSLQLEKEVVRVWFCNRRQKEKR	-0.321 ± 0.12
KMRTSIEVSVKGALESHFLKCPKPSAQEITNLADSLQLEKEVVRVWFCNRRQKEKR	-0.066 ± 0.12
KIRTSIEVSVKGALESHFLKCPKPSAQEITNLADSLQLEKEVVRVWFCNRRQKEKR	-0.374 ± 0.17
KQRTSIEVSVKGALESHFLKCPKPSAQEITNLADSLQLEKEVVRVWFCNRRQKEKR	-0.255 ± 0.23
KRRTSIEVSVKGALESHFLKCPKPSAQEITNLADSLQLEKEVVRVWFCNRRQKEKR	-0.086 ± 0.081
KARTSIEVSVKGALESHFLKCPKPSAQEITNLADSLQLEKEVVRVWFCNRRQKEKR	-0.13 ± 0.12
KYRTSIEVSVKGALESHFLKCPKPSAQEITNLADSLQLEKEVVRVWFCNRRQKEKR	-0.391 ± 0.14
KPRTSIEVSVKGALESHFLKCPKPSAQEITNLADSLQLEKEVVRVWFCNRRQKEKR	-0.305 ± 0.15
KHRTSIEVSVKGALESHFLKCPKPSAQEITNLADSLQLEKEVVRVWFCNRRQKEKR	-0.38 ± 0.36
KKRTGIEVSVKGALESHFLKCPKPSAQEITNLADSLQLEKEVVRVWFCNRRQKEKR	-0.008 ± 0.064
KKRTDIEVSVKGALESHFLKCPKPSAQEITNLADSLQLEKEVVRVWFCNRRQKEKR	-0.064 ± 0.12
KKRTEIEVSVKGALESHFLKCPKPSAQEITNLADSLQLEKEVVRVWFCNRRQKEKR	-0.047 ± 0.1
KKRTHIEVSVKGALESHFLKCPKPSAQEITNLADSLQLEKEVVRVWFCNRRQKEKR	0.175 ± 0.15
KKRTMIEVSVKGALESHFLKCPKPSAQEITNLADSLQLEKEVVRVWFCNRRQKEKR	0.125 ± 0.12
KKRTQIEVSVKGALESHFLKCPKPSAQEITNLADSLQLEKEVVRVWFCNRRQKEKR	0.203 ± 0.12
KKRTNIEVSVKGALESHFLKCPKPSAQEITNLADSLQLEKEVVRVWFCNRRQKEKR	0.193 ± 0.11
KKRTKIEVSVKGALESHFLKCPKPSAQEITNLADSLQLEKEVVRVWFCNRRQKEKR	0.097 ± 0.11
KKRTTIEVSVKGALESHFLKCPKPSAQEITNLADSLQLEKEVVRVWFCNRRQKEKR	0.135 ± 0.098
KKRTAIEVSVKGALESHFLKCPKPSAQEITNLADSLQLEKEVVRVWFCNRRQKEKR	0.086 ± 0.079
KKRTYIEVSVKGALESHFLKCPKPSAQEITNLADSLQLEKEVVRVWFCNRRQKEKR	0.206 ± 0.12

Variant	abundance fitness
KKRTPIEVSVKGALESHFLKCPKPSAQEITNLADSLQLEKEVVRVWFCNRRQKEKR	0.132 ± 0.12
KKRTCIEVSVKGALESHFLKCPKPSAQEITNLADSLQLEKEVVRVWFCNRRQKEKR	0.128 ± 0.09
KKRTWIEVSVKGALESHFLKCPKPSAQEITNLADSLQLEKEVVRVWFCNRRQKEKR	-0.255 ± 0.089
CKRTSIEVSVKGALESHFLKCPKPSAQEITNLADSLQLEKEVVRVWFCNRRQKEKR	-0.104 ± 0.17
RKRTSIEVSVKGALESHFLKCPKPSAQEITNLADSLQLEKEVVRVWFCNRRQKEKR	-0.263 ± 0.12
AKRTSIEVSVKGALESHFLKCPKPSAQEITNLADSLQLEKEVVRVWFCNRRQKEKR	-0.075 ± 0.27
DKRTSIEVSVKGALESHFLKCPKPSAQEITNLADSLQLEKEVVRVWFCNRRQKEKR	-0.124 ± 0.13
NKRTSIEVSVKGALESHFLKCPKPSAQEITNLADSLQLEKEVVRVWFCNRRQKEKR	-0.072 ± 0.2
QKRTSIEVSVKGALESHFLKCPKPSAQEITNLADSLQLEKEVVRVWFCNRRQKEKR	-0.271 ± 0.27
LKRTSIEVSVKGALESHFLKCPKPSAQEITNLADSLQLEKEVVRVWFCNRRQKEKR	-0.756 ± 0.24
MKRTSIEVSVKGALESHFLKCPKPSAQEITNLADSLQLEKEVVRVWFCNRRQKEKR	-0.333 ± 0.23
SKRTSIEVSVKGALESHFLKCPKPSAQEITNLADSLQLEKEVVRVWFCNRRQKEKR	-0.154 ± 0.14
WKRTSIEVSVKGALESHFLKCPKPSAQEITNLADSLQLEKEVVRVWFCNRRQKEKR	-0.15 ± 0.34
VKRTSIEVSVKGALESHFLKCPKPSAQEITNLADSLQLEKEVVRVWFCNRRQKEKR	-0.092 ± 0.33
IKRTSIEVSVKGALESHFLKCPKPSAQEITNLADSLQLEKEVVRVWFCNRRQKEKR	-0.181 ± 0.16
GKRTSIEVSVKGALESHFLKCPKPSAQEITNLADSLQLEKEVVRVWFCNRRQKEKR	-0.067 ± 0.1
YKRTSIEVSVKGALESHFLKCPKPSAQEITNLADSLQLEKEVVRVWFCNRRQKEKR	-0.258 ± 0.23
KKRTSAEVSVKGALESHFLKCPKPSAQEITNLADSLQLEKEVVRVWFCNRRQKEKR	-0.015 ± 0.1
KKRTSGEVSVKGALESHFLKCPKPSAQEITNLADSLQLEKEVVRVWFCNRRQKEKR	-0.071 ± 0.071
KKRTSKEVSVKGALESHFLKCPKPSAQEITNLADSLQLEKEVVRVWFCNRRQKEKR	-0.051 ± 0.12
KKRTSNEVSVKGALESHFLKCPKPSAQEITNLADSLQLEKEVVRVWFCNRRQKEKR	-0.234 ± 0.19
KKRTSEEVSVKGALESHFLKCPKPSAQEITNLADSLQLEKEVVRVWFCNRRQKEKR	-0.091 ± 0.12
KKRTSPEVSVKGALESHFLKCPKPSAQEITNLADSLQLEKEVVRVWFCNRRQKEKR	0.01 ± 0.16

Variant	abundance fitness
KKRTSDEVSVKGALESHFLKCPKPSAQEITNLADSLQLEKEVVRVWFCNRRQKEKR	-0.135 ± 0.12
KKRTSFEVSVKGALESHFLKCPKPSAQEITNLADSLQLEKEVVRVWFCNRRQKEKR	-0.272 ± 0.12
KKRISIEVSVKGALESHFLKCPKPSAQEITNLADSLQLEKEVVRVWFCNRRQKEKR	-0.014 ± 0.17
KKRYSIEVSVKGALESHFLKCPKPSAQEITNLADSLQLEKEVVRVWFCNRRQKEKR	-0.19 ± 0.11
KKRESIEVSVKGALESHFLKCPKPSAQEITNLADSLQLEKEVVRVWFCNRRQKEKR	-0.082 ± 0.16
KKRSSIEVSVKGALESHFLKCPKPSAQEITNLADSLQLEKEVVRVWFCNRRQKEKR	-0.077 ± 0.078
KKRGSIEVSVKGALESHFLKCPKPSAQEITNLADSLQLEKEVVRVWFCNRRQKEKR	-0.077 ± 0.066
KKRKSIEVSVKGALESHFLKCPKPSAQEITNLADSLQLEKEVVRVWFCNRRQKEKR	-0.142 ± 0.12
KKRHSIEVSVKGALESHFLKCPKPSAQEITNLADSLQLEKEVVRVWFCNRRQKEKR	-0.405 ± 0.23
KKRMSIEVSVKGALESHFLKCPKPSAQEITNLADSLQLEKEVVRVWFCNRRQKEKR	-0.064 ± 0.08
KKRFSIEVSVKGALESHFLKCPKPSAQEITNLADSLQLEKEVVRVWFCNRRQKEKR	-0.116 ± 0.18
KKRDSIEVSVKGALESHFLKCPKPSAQEITNLADSLQLEKEVVRVWFCNRRQKEKR	-0.279 ± 0.14
KKRCSIEVSVKGALESHFLKCPKPSAQEITNLADSLQLEKEVVRVWFCNRRQKEKR	-0.205 ± 0.11
KKRASIEVSVKGALESHFLKCPKPSAQEITNLADSLQLEKEVVRVWFCNRRQKEKR	-0.17 ± 0.079
KKRVSIEVSVKGALESHFLKCPKPSAQEITNLADSLQLEKEVVRVWFCNRRQKEKR	-0.095 ± 0.073
KKRRSIEVSVKGALESHFLKCPKPSAQEITNLADSLQLEKEVVRVWFCNRRQKEKR	-0.26 ± 0.067
KKRLSIEVSVKGALESHFLKCPKPSAQEITNLADSLQLEKEVVRVWFCNRRQKEKR	-0.093 ± 0.074
KKRQSIEVSVKGALESHFLKCPKPSAQEITNLADSLQLEKEVVRVWFCNRRQKEKR	0.005 ± 0.11
KKRWSIEVSVKGALESHFLKCPKPSAQEITNLADSLQLEKEVVRVWFCNRRQKEKR	-0.572 ± 0.11
KKRPSIEVSVKGALESHFLKCPKPSAQEITNLADSLQLEKEVVRVWFCNRRQKEKR	-0.257 ± 0.16
